{
  "source": "paper PMC12463490",
  "target": "T1, rCCN2 (cellular communication network factor 2) (UniProt P29279)",
  "T1 sequence": "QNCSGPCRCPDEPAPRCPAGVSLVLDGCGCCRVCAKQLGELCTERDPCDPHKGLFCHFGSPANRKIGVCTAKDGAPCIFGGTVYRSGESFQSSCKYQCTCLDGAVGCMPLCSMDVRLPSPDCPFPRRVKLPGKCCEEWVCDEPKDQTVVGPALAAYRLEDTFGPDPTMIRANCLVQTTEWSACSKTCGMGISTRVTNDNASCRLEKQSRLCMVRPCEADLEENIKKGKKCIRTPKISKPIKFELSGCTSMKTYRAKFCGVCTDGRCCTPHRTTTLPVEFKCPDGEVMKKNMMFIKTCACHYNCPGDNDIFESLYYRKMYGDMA",
  "experiment": "EMSA",
  "conditions": "20 mM HEPES (pH not stated), 45 mM KCl, 10 mM NaCl, 1 mM DTT, 0.1% NP-40, 10% glycerol, 4 C overnight; 4% polyacrylamide gel in TBE",
  "data": [
    {"sequence": "GCACACATGCTTCCTGTGGTGACTGGGCGCTTCCTGTTTTCTCAGGCACCGGCCTTGCTGCTGCCGATGTGGAAACAGGGGCAGCTGCAGCCAGGGCGGCTCCAGGCTGGGCACTCTGACCCTGCCCAGAAGGGAGTGAGGGGGCCCACCACCCTTAGACTTACGATCTAGACAGTGGGT (double strand) [Spi1 proximal promoter probe (178 bp)]", "values": [
      {"measurement": "binding", "result": "binds"}
    ]}
  ]
}
